This is an account of results in paper PMC7288244.

One assay concerns the target the FcγR. In words: fluorescence correlation spectroscopy.
Assay [1] addresses Human Recombinant FcγR receptor IIA/CD32a (human) (UniProt P12318). In words: ELISA.

Broadly, the stoichiometry N is the number of molecules, sites or subunits per partner or assembly. A word on the EC50: it is the concentration at which the effect is half-maximal.

Sequence of UniProt P12318 (P12318 34-217): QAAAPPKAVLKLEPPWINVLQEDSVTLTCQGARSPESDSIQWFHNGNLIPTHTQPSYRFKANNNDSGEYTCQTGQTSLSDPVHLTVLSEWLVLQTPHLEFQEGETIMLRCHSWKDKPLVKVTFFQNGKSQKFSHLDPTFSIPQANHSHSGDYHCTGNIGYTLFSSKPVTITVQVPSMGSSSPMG

For the substance human IgG1 mAb N5-i5-LALA (antibody), in the assay with the FcγR, the stoichiometry N came out at 1.

Turning to immune complex of C11-LALA with FLSC, the EC50 in assay [1] came out at 0.6 nM.

human IgG1 mAb C11-LALA (antibody) returned a stoichiometry N with the FcγR of 1.

Take immune complex of N5-i5-LALA with FLSC: in assay [1], the EC50 was found to be 6 nM.
